Where no end group is shown, it is not given here. [ ]: non-standard residue; d: D form. dPhe(4-NO2) = N[C@H](Cc1ccc([N+](=O)[O-])cc1)C(=O)O; dPhe(F5) = N[C@H](Cc1c(F)c(F)c(F)c(F)c1F)C(=O)O; dBpa = N[C@H](Cc1ccc(C(=O)c2ccccc2)cc1)C(=O)O; dCha = N[C@H](CC1CCCCC1)C(=O)O
T1: baculovirus derived recombinant human full length Chk1 with histidine tag (human, UniProt O14757 1-476)
T1 sequence: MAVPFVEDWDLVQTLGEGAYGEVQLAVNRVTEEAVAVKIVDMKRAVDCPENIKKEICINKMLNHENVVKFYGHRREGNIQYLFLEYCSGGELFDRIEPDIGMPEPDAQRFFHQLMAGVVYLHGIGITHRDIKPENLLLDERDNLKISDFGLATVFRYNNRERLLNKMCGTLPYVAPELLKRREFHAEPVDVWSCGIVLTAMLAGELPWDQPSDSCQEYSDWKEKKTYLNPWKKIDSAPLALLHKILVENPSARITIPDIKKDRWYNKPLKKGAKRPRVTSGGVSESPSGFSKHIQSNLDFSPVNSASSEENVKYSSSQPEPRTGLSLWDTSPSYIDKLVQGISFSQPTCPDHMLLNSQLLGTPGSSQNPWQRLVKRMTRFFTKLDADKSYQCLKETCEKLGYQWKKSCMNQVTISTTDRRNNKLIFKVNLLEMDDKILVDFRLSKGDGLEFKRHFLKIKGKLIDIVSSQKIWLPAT


Legend:
Assay in all cases: cell-based or functional assay
[1] = biological target: E. Coli derived recombinant human full length Chk2 fused with GST (human, UniProt O96017 1-543)
Chain of E. Coli derived recombinant human full length Chk2 fused with GST (O96017 whole entry, the tested form may be a part): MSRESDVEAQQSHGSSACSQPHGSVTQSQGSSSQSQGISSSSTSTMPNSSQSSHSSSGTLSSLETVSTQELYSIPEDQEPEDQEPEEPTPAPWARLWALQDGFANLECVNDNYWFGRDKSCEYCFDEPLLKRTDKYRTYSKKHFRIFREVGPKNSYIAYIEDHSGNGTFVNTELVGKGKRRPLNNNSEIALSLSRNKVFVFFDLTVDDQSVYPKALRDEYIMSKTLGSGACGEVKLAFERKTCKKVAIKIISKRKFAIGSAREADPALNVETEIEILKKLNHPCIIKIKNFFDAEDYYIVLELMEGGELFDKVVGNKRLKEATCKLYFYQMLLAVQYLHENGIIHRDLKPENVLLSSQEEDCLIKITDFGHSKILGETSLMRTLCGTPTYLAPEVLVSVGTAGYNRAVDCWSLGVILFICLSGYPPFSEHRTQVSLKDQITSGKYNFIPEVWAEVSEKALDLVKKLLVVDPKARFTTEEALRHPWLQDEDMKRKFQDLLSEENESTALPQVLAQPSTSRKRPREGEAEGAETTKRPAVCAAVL

[2] = biological target: T1, baculovirus derived recombinant human …
purified CHK2 kinase = purified CHK2 kinase (UniProt O96017 1-543)
Chain of purified CHK2 kinase (O96017 whole entry): as the sequence (O96017 whole entry, the tested form may be a part) above

PKA = biological target: PKA

| Binder | Kinase inhibition analysis of peptides (phosphorylation of serine 216 on GST-Cdc25C 167-267, enzyme linked immune assay) [1] | Kinase inhibition analysis of peptides (phosphorylation of serine 216 on GST-Cdc25C 167-267, enzyme linked immune assay) [2] | IC50 in µM, kinase inhibition analysis (PepTag Non-Radioactive Protein Kinase Assay) (purified CHK2 kinase) [µM] | IC50 in µM, kinase inhibition analysis (PepTag Non-Radioactive Protein Kinase Assay) (PKA) [µM] |
| --- | --- | --- | --- | --- |
| [dBpa][dS][dW][dS][dPhe(F5)][dCha][dR][dR][dR][dQ][dR][dR] [CBP501] | 18.6 | 7.9 | – | – |
| YGRKKRRQRRRXFXYY ((l-Tyr)(l-Gly)(l-Arg)(l-Lys)(l-Lys)(l-Arg)(l-Arg)(l-Gln)(l-Arg)(l-Arg)(l-Arg)(l-Cha)(l-Phe-2,3,4,5,6-F)(l-aminoundecanoic acid)(l-Tyr)(l-Tyr): position 12 cyclohexyl-alanine; position 13 pentafluoro-phenylalanine; position 14 aminoundecanoic acid) [CBP440] | – | – | 8 | 180 |
| [dY][dY][dS]G[dS][dR][dPhe(F5)][dCha][dR][dR][dR][dQ][dR][dR][dK][dK][dR]G[dY] [CBP450] | – | – | 10 | > 400 |
| [dY][dBpa][dS][dW][dS][dPhe(F5)][dCha][dR][dR][dR][dQ][dR][dR] [CBP500] | 8 | 5.6 | – | – |
| [dBpa][dD][dS][dW][dS][dPhe(F5)][dCha][dR][dR][dR][dQ][dR][dR] (also: cyclised or stapled (no detail)) [CBP505] | > 100 | 63.4 | – | – |
| [dBpa][dS][dW][dS][dPhe(4-NO2)][dCha][dR][dR][dR][dQ][dR][dR] (also: cyclised or stapled (no detail)) [CBP603] | 18.1 | 15.5 | – | – |
